According to patent publication US20240270826A1 (NATIONAL RESEARCH COUNCIL OF CANADA, published 2024):

Experiments:
SARS-CoV spike (S) = SARS-CoV spike (S) (SARS-CoV, UniProt P59594 14-1195); experiment: ELISA
[1] = target: SARS-CoV-2 S1-NTD (aa16-305) (SARS-CoV-2 Wuhan, UniProt P0DTC2 16-305); experiment: ELISA
[2] = target: T1, SARS-CoV-2 S2 (aa686-1208) (Wuhan) (SARS-CoV-2 Wuhan, UniProt P0DTC2 686-1208); experiment: ELISA
T1 construct: NRC; FLAG, 6xHis tags

[3] = target: T2, SARS-CoV-2 S on CHO-S cells (SARS-CoV-2, UniProt P0DTC2 14-1273); experiment: flow cytometry, CHO-S cells
T2 construct: whole, on cells

[4] = target: Human SARS-CoV-2_Wuhan S (SmT1) (SARS-CoV-2 (Wuhan), UniProt P0DTC2 14-1208); experiment: flow cytometry SVNA: VHH-Fc inhibits S binding to ACE2 on Vero E6 cells
[5] = target: T3, SARS-CoV-2 spike trimer S (Wuhan, SmT1) (SARS-CoV-2 Wuhan); experiment: SPR, antigen on chip
T3 construct: extracellular domain

[6] = target: T4, SARS-CoV-2 S1 (aa16-685) (Wuhan) (SARS-CoV-2 Wuhan, UniProt P0DTC2 16-685); experiment: SPR, antigen on chip
T4 construct: NRC; FLAG, 6xHis tags

[7] = target: T1, SARS-CoV-2 S2 (aa686-1208) (Wuhan); experiment: SPR, antigen on chip

| Binder | Kd [5] [nM] | koff [5] [s⁻¹] | kon [5] [M⁻¹ s⁻¹] | binding result [6] | Kd [7] [nM] | koff [7] [s⁻¹] | kon [7] [M⁻¹ s⁻¹] | other results |
| --- | --- | --- | --- | --- | --- | --- | --- | --- |
| NRCoV2-02 VHH-Fc (Fc fusion, bivalent VHH-Fc) EVQLVESGGGLVQAGGSLRLSCAASGFTFSNYAMNWVRQAPGKGLEWVSGISGRGDDTRYADSVKGRFTISRDNAKNTLFLQMRSLRPEDTGVYRCTKGPDLYYFGSGYSDRGQGTQVTVSS | – | – | – | – | – | – | – | binding result (SARS-CoV spike (S)): no binding (tested: 13 nM); binding result [1]: no binding (tested: 13 nM); binding result [2]: no binding (tested: 13 nM); Bmax [3]: 18600; EC50 [3]: 0.3 nM |
| NRCoV2-SR16 VHH-Fc (Fc fusion, bivalent VHH-Fc) QVQLVQSAGGLVQAGGSLRLSCVVSGTTFSRYHMGWHRQAPGKQRDFVAGISTSGAVTYADSAKGRFTISRDNAKNTVYLEMNSLKLEDTALYYCNTGGWDYRSSTFIMGLNWGQGTQVTVSS | – | – | – | – | – | – | – | binding result (SARS-CoV spike (S)): no binding (tested: 13 nM); binding result [2]: no binding (tested: 13 nM); Bmax [3]: 11600; EC50 [3]: 1.4 nM |
| NRCoV2-MRed03 VHH-Fc (Fc fusion, bivalent VHH-Fc) EVQLVESGGGLVQPGGSLRLSCAAIGFTLDYYAIGWFRQAPGKEREGVSCISSSDGSTYYADSVKGRFTISRDNAKNTVYLQMNSLKPEDTAVYYCATDAFATCDSWYAQIAQYDFRGQGTQVTVSS | – | – | – | – | – | – | – | binding result (SARS-CoV spike (S)): no binding (tested: 13 nM); binding result [2]: no binding (tested: 13 nM); Bmax [3]: 12000; EC50 [3]: 15.1 nM |
| NRCoV2-MRed06 VHH-Fc (Fc fusion, bivalent VHH-Fc) EVQLVESGGGLVQAGGSLRLSCAASGFTLAYYAIGWFRQAPGKEREGVSCISSSDGSAHYADSVKGRFTISRDNAKNTVSLQMNSLKPEDTAVYYCATDSFSSCSDYESGMDFWGKGTQVTVSS | – | – | – | – | – | – | – | binding result (SARS-CoV spike (S)): no binding (tested: 13 nM); binding result [2]: no binding (tested: 13 nM); Bmax [3]: 9020; EC50 [3]: 8.5 nM |
| NRCoV2-MRed07 VHH-Fc (Fc fusion, bivalent VHH-Fc) EVQLVESGGGLVQPGGSLTLSCAASGSIGPFNTMGWYRQAPGNQREPAAIITRGGVTNYADSVKGRFTISRDNAKNAVYLQMDSLKPDDTAVYYCYANYGWAIPYWGNGTQVTVSS | – | – | – | – | – | – | – | binding result (SARS-CoV spike (S)): no binding (tested: 13 nM); binding result [2]: no binding (tested: 13 nM); Bmax [3]: 8670; EC50 [3]: 132 nM |
| NRCoV2-MRed05 VHH-Fc (Fc fusion, bivalent VHH-Fc) EVQLVESGGGLVQPGGSLRLSCAASGFTLDYYAIGWFRQAPGKEREGVSCISSSDGSTLYADSVKGRFTISRDNAKNTVYLQMNSLKPEDTAVYYCATGPQAYYSGSYYFQCPQAGMDYWGKGTQVTVSS | – | – | – | – | – | – | – | IC50 [4]: 4.3 nM |
| NRCoV2-04 VHH-Fc (Fc fusion, bivalent VHH-Fc) AVQLVDSGGGLVQPGGSLRLSCAASGSPFSNVVMAWYRQAPGKQRERVAFISGGGIADYIMSVKGRFTISRDNAKNTVYLQMNSLKPEDTAVYYCWSSYESTWGQGTQVTVSS | – | – | – | – | – | – | – | IC50 [4]: 10.8 nM |
| NRCoV2-SR02 VHH-Fc (Fc fusion, bivalent VHH-Fc) EVQLVDSGGGLVQAGGSLRLSCTASEFTLNYYSIGWFRQSPGKEREGVSCIRYSGGGIDYADSVKGRFTISRDNAKNTVYLTMNSLKPEDTAVYYCAADRLYSRACPTAGGRNYWGQGTQVTVSS | – | – | – | – | – | – | – | IC50 [4]: 1.7 nM |
| NRCoV2-MRed03 VHH (VHH) VHH: EVQLVESGGGLVQPGGSLRLSCAAIGFTLDYYAIGWFRQAPGKEREGVSCISSSDGSTYYADSVKGRFTISRDNAKNTVYLQMNSLKPEDTAVYYCATDAFATCDSWYAQIAQYDFRGQGTQVTVSS | 0.52 | 8.14e-05 | 157000 | – | – | – | – | Kd [6]: 0.223 nM; koff [6]: 6.15e-05 s⁻¹; kon [6]: 276000 M⁻¹ s⁻¹; binding result [7]: no binding |
| NRCoV2-MRed06 VHH (VHH) VHH: EVQLVESGGGLVQAGGSLRLSCAASGFTLAYYAIGWFRQAPGKEREGVSCISSSDGSAHYADSVKGRFTISRDNAKNTVSLQMNSLKPEDTAVYYCATDSFSSCSDYESGMDFWGKGTQVTVSS | 4.8 | 0.000887 | 185000 | – | – | – | – | Kd [6]: 4.22 nM; koff [6]: 0.00157 s⁻¹; kon [6]: 371000 M⁻¹ s⁻¹; binding result [7]: no binding |
| NRCoV2-MRed07 VHH (VHH) VHH: EVQLVESGGGLVQPGGSLTLSCAASGSIGPFNTMGWYRQAPGNQREPAAIITRGGVTNYADSVKGRFTISRDNAKNAVYLQMDSLKPDDTAVYYCYANYGWAIPYWGNGTQVTVSS | 0.236 | 0.000378 | 1.6e+06 | – | – | – | – | Kd [6]: 0.378 nM; koff [6]: 0.000427 s⁻¹; kon [6]: 1.13e+06 M⁻¹ s⁻¹; binding result [7]: no binding |
| NRCoV2-MRed11 VHH (VHH) VHH: EVQLVESGGGLVQAGGSLRLSCAASGFTFSSYAMSWHRQAPGKGLEWVSAINSGGGSTSYADSVKGRFAISRDNAKNTLYLQMNSLKPEDTAVYYCATTISDGSSWSTKSYRGQGTQVTVSS | 17.8 | 0.000418 | 23400 | no binding | 5.21 | 0.000213 | 40900 | – |
| NRCoV2-MRed18 VHH (VHH) VHH: EVQLVESGGGLVQPGGSLRLSCAASTTVFGRNAMGWYRQAPGKERELVATVSDGGTPNYADSVKGRFTISRDNAKNTIYLQMNSLEPEDTAVYYCNYYNYYYGRNFWGQGTQVTVSS | 7.56 | 0.00153 | 202000 | no binding | 6.8 | 0.00103 | 152000 | – |
| NRCoV2-MRed19 VHH (VHH) VHH: EVQLVESGGGLVQPGGSLRLSCAASTIIFKGQTMGWFRQAPGNERELVATMTTSGSANYADSVKGRFTISRDNEKTVTLQMNSLKPEDTALYYCYMHSVYYGIDYWGKGTQVTVSS | 5.01 | 0.000799 | 159000 | no binding | 8.2 | 0.00084 | 102000 | – |
| NRCoV2-MRed20 VHH (VHH) VHH: EVQLVESGGGSVQAGGSLRLSCAASGLSFSSYDMGWFRQAPGKEREFVAAIRESGSGTYYADSVKGRFTISRDNAKNTVYLQVSSLKPEDTAVYTCAAKPPFYGSGTYSTPRAYLYWGQGTQVTVSS | 0.0918 | 1.46e-05 | 160000 | no binding | 0.299 | 3.38e-05 | 113000 | – |
| NRCoV2-MRed22 VHH (VHH) VHH: EVQLVESGGGLVQPGGSLRLSCAASGSVFASNAMGWYRQAPGKQRELVATISSRGSTNYADSVKGRFTISRDNAKNTVYLQMNSLGPEDTAVYYCNAREFTGFDYWGQGTQVTVSS | 0.506 | 0.000176 | 347000 | no binding | 1.05 | 0.000284 | 270000 | – |
| NRCoV2-MRed25 VHH (VHH) VHH: EVQLVESGGGLVQAGGSLRLSCAASGHTFSRYGMGWFRQAPGKEREFVAAISWRGDSTYYRDSVNGRFTISRDNAKNTVYLGMNSLKPEDTAVYYCAAEMWGTATIVASRYTYWGQGTQVTVSS | 1.02 | 0.000115 | 112000 | no binding | 1.56 | 0.00019 | 122000 | – |
